In patent publication US20230312756A1 (MacroGenics, published 2023):

Biological target: T1, PD-1 on circulating T cells of patients (human, UniProt Q15116 25-288)
T1 construct: whole, on cells; Probably the same protein as m2
Assay: receptor occupancy by flow cytometry on blood of patients treated with DART-D
Method: Receptor Occupancy (RO): One hundred microliter […] volumes of whole blood samples (per time point/per patient) were incubated with saturating concentration of DART-D, followed by lysis and detection of DART-D by biotinylated anti-drug mAb/Strep-PE in “DART-D-spiked” and control samples. After subtraction of background fluorescence (Step-PE only), RO values were calculated as a fraction of maximal binding capacity: RO=(untreated MFI(PE)−background MFI(PE))/(treated MFI(PE)−background MFI(PE)).

T1 sequence (Q15116 25-288): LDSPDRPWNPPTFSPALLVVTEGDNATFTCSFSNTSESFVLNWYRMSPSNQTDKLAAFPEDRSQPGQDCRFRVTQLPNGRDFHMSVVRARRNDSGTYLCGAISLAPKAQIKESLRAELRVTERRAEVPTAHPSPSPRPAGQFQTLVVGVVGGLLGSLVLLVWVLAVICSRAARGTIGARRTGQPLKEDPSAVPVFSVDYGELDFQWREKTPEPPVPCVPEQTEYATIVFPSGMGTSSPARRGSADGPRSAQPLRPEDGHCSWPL

binding result: binds
B1: DART-D (bispecific antibody, human IgG4 S228P)
chain 1: EIVLTQSPATLSLSPGERATLSCRASESVDNYGMSFMNWFQQKPGQPPKLLIHAASNQGSGVPSRFSGSGSGTDFTLTISSLEPEDFAVYFCQQSKEVPYTFGGGTKVEIKGGGSGGGGQVQLVESGGGVVQPGRSLRLSCAASGFTFSSYTMHWVRQAPGKGLEWVTFISYDGSNKHYADSVKGRFTVSRDNSKNTLYLQMNSLRAEDTAIYYCARTGWLGPFDYWGQGTLVTVSSGGCGGGEVAACEKEVAALEKEVAALEKEVAALEKESKYGPPCPPCPAPEFLGGPSVFLFPPKPKDTLYITREPEVTCVVVDVSQEDPEVQFNWYVDGVEVHNAKTKPREEQFNSTYRVVSVLTVLHQDWLNGKEYKCKVSNKGLPSSIEKTISKAKGQPREPQVYTLPPSQEEMTKNQVSLTCLVKGFYPSDIAVEWESNGQPENNYKTTPPVLDSDGSFFLYSRLTVDKSRWQEGNVFSCSVMHEALHNHYTQKSLSLSLG
chain 2: not shown
notes: Tetravalent (2x2) four-chain Fc-bearing diabody, two sites for PD-1 and two for CTLA-4; also called MGD019; PD-1×CTLA-4 bispecific molecule
